In assay [1] the target is T1, full-length beta-Catenin (Uniprot ID P35222) (Homo sapiens (Human), UniProt P35222 1-781).
T1 construct: also called bCat; B-Catenin
T1 sequence: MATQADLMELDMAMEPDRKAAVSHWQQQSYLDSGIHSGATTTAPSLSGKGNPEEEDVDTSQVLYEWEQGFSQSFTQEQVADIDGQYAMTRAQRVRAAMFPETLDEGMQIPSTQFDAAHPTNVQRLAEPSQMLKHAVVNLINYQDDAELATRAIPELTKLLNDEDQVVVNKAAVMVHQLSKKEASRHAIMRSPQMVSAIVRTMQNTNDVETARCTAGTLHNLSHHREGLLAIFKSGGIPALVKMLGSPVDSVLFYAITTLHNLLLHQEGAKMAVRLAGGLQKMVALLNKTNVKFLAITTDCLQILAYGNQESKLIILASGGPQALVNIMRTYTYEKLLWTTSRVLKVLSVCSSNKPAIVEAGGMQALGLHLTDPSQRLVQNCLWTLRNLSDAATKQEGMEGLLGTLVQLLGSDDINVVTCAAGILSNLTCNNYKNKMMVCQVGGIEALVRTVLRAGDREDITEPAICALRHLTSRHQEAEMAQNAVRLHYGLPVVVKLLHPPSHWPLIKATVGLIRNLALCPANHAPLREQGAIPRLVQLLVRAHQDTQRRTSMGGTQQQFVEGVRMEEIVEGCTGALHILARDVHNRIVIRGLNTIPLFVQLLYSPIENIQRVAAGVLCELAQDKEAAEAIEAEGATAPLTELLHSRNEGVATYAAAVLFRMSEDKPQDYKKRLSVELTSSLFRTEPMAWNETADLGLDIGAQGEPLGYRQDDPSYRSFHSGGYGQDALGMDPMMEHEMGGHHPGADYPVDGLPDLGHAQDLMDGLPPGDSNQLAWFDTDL
Briefly: fluorescence polarization competition vs 5FAM-TCF4(10-53) on full-length beta-catenin. Here is the method: (§1) The plate was incubated protected from light for 60 minutes at 20° C. prior to read. Reads were performed on a CLARIOstar plate reader (BMG Labtech) in duplicate, and data were fitted to a 1:1 binding model with hill slope using an in-house script. All provided concentrations are final concentrations.

In assay [2] the target is T2, full-length beta-Catenin (Uniprot ID P35222) (Homo sapiens (Human), UniProt P35222 1-781).
T2 construct: also called bCat; B-Catenin
T2 sequence: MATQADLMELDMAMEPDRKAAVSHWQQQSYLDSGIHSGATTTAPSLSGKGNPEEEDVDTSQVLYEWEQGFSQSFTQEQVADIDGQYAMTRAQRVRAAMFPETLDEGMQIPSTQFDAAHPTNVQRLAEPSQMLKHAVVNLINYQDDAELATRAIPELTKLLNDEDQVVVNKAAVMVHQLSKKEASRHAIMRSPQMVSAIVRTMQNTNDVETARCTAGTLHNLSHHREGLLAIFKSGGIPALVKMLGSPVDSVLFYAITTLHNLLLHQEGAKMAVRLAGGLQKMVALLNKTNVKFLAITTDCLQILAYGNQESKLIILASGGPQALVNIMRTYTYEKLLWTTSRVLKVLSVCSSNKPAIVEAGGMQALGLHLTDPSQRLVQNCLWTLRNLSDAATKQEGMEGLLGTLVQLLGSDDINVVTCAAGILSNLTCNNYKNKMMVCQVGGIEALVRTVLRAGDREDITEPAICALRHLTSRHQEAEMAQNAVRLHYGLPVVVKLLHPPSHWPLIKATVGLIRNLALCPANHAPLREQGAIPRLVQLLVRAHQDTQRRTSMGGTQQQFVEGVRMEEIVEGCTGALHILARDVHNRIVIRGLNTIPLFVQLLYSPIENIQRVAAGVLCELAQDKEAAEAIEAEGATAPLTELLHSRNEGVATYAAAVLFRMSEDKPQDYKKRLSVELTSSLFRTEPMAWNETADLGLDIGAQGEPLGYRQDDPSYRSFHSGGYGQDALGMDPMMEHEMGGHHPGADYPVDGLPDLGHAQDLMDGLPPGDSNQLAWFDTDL
Put plainly: fluorescence polarization competition; displacement of 5FAM-TCF4(10-53) from full-length beta-catenin. The procedure:
as §1
Background: Fluorescence polarisation rises when a labelled molecule tumbles more slowly, as on binding a larger partner.

Assay [3] concerns the target T3, full-length beta-Catenin (Uniprot ID P35222) (Homo sapiens (Human), UniProt P35222 1-781).
T3 construct: Used full-length in the FP and AlphaScreen assays; also called B-Catenin; bCat
T3 sequence: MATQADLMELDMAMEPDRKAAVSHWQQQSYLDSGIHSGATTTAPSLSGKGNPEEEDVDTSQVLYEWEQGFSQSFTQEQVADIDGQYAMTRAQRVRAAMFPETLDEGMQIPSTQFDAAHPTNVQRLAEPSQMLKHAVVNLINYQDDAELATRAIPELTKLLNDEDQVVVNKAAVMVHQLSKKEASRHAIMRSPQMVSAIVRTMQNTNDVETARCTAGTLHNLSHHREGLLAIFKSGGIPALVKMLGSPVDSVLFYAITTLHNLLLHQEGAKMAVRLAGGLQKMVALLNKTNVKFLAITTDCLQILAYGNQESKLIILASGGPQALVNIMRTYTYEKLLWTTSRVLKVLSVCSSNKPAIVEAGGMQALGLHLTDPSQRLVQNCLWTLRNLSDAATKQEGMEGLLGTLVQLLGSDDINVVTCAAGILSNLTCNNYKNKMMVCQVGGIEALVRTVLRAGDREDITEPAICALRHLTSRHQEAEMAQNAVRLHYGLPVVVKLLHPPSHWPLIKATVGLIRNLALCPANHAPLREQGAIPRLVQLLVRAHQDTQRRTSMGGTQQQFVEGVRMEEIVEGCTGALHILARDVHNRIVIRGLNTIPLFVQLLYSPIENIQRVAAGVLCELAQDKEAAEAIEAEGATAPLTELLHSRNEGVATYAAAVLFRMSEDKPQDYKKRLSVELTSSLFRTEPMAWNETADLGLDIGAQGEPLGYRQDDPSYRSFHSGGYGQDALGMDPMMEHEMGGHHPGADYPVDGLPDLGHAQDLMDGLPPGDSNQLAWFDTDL
Briefly: fluorescence polarization competition; full-length beta-catenin + 5FAM-TCF4(10-53) probe as competitor; peptide titrated. Here is the method:
as §1

Among the data in patent publication US20240116985A1 (published 2024) are IC50 and EC50 values, retold here.

Starred links: 1 amine or outer side, 2 acyl side, 3 side chain; linkers in the order of their positions; H or OH if unused. Positions of bridges follow the written chain, without caps; N, C: chain ends. Non-standard residues stand in square brackets, D forms with d. Primed or numbered codes have the meaning given here. B5(4) = 2,2-bis(4-pentenyl)glycine = 2-amino-2-(pent-4-en-1-yl)hept-6-enoic acid (stitching residue), C=CCCCC(CCCC=C)(N[*:1])C(=O)[*:2]; B5(5) = 2,2-bis(4-pentenyl)glycine, 2-amino-2-(pent-4-en-1-yl)hept-6-enoic acid (stitching residue), C=CCCCC(CCCC=C)(N[*:1])C(=O)[*:2]; B5(21) = 2-amino-2-(pent-4-en-1-yl)hept-6-enoic acid, bis(4-pentenyl)glycine (stitching residue), C=CCCCC(CCCC=C)(N[*:1])C(=O)[*:2]; B5(9) = 2-amino-2-(pent-4-en-1-yl)hept-6-enoic acid (2,2-bis(4-pentenyl)glycine), C=CCCCC(CCCC=C)(N[*:1])C(=O)[*:2]; B5(14) = 2-amino-2-(pent-4-en-1-yl)hept-6-enoic acid (bis-pentenylglycine), C=CCCCC(CCCC=C)(N[*:1])C(=O)[*:2]; (NHCyPr)AsnR = N4-cyclopropyl-L-asparagine, O=C(C[C@H](N[*:1])C(=O)[*:2])NC1CC1; (NHnPr)AsnR = N4-propyl-L-asparagine, CCCNC(=O)C[C@H](N[*:1])C(=O)[*:2]; TOMe = O-methyl-L-threonine, CO[C@H](C)[C@H](N[*:1])C(=O)[*:2]; S(OMe) = O-methyl-L-serine, COC[C@H](N[*:1])C(=O)[*:2]; Phe(3,4,5-F3) = N[C@@H](Cc1cc(F)c(F)c(F)c1)C(=O)O; Phe(2-CONH2) = NC(=O)c1ccccc1C[C@H](N)C(=O)O; Bta = N[C@@H](Cc1csc2ccccc12)C(=O)O; αAllylPro = C=CC[C@@]1(C(=O)O)CCCN1; S8 = C=CCCCCCC[C@](C)(N)C(=O)O

B1: I-331 (peptide)
peptide: Ac-[αAllylPro]DA[B5(14)]DDAAHV[S8]FWQ-NH2
modifications: staple 1-4, 4-11; not fully specified (residue 9)
notes: Stapled peptide composition; also called Ac-PL3-Asp-Ala-B5-Asp-Asp-Ala-Ala-3meH-Val-S8-Phe-Trp-Gln-NH2
What is called IC50 is the point on the concentration scale where inhibition reaches its midpoint. Low readings indicate inhibition by little substance, high ones a need for much substance. In the case of B1, in assay [1], the half-inhibitory concentration (IC50) was 5000 nM.

B2: I-537 (peptide)
peptide: Ac-[αAllylPro]DA[B5(21)][(NHnPr)AsnR]DAAFV[S8]F[Bta]Q-NH2
modifications: staple 1-4, 4-11
notes: Stapled (stitched) peptide composition
What is called EC50 is the concentration at which the effect is half-maximal. For B2, the EC50 in assay [2] was found to be 5000 nM.

B3: I-538 (peptide)
peptide: Ac-[αAllylPro]DA[B5(21)][(NHCyPr)AsnR]DAAFV[S8]F[Bta]Q-NH2
modifications: staple 1-4, 4-11
notes: as for B2
In assay [2], B3 returned an EC50 of 5000 nM.

B4: I-211 (peptide)
peptide: Ac-[αAllylPro]DA[B5(4)]DEAA[Phe(3,4,5-F3)]V[S8]FWQ-NH2
modifications: staple 1-4, 4-11; not fully specified; printed as Ac-PL3-Asp-Ala-B5-Asp-Glu-Ala-Ala-345FF-Val-S8-Phe-Trp-Gln-NH2
notes: Stapled peptide composition
As for B4, the EC50 in assay [3] was determined as 5000 nM.

B5: I-542 (peptide)
peptide: XDTXDEAAFQXFXQ
modifications: not fully specified; Ac-PL3-Asp-TOMe-B5-Asp-Glu-Ala-Ala-Phe-Gln-S8-Phe-BztA-Gln-NH2; N-terminal acetyl, C-terminal amide; non-natural: PL3(1), TOMe(3), B5(4), S8(11), BztA(13); staples PL3(1)-B5(4) and B5(4)-S8(11)
As to B5, the response in assay [2] was half-maximal at 109 nM (EC50).

B6: I-541 (peptide)
peptide: Ac-[αAllylPro]D[TOMe][B5(21)]DEAAFQ[S8]F[Bta]Q-NH2
modifications: staple 1-4, 4-11
The molecule B6 came in with an EC50 in assay [2] of 180 nM.

B7: I-348 (peptide)
peptide: XAAXDDAAFVXFWQ
modifications: not fully specified; N-terminal Ac; PL3 at 1; B5 at 4; S8 at 11; C-terminal NH2; stapled PL3-B5 and B5-S8 (olefin metathesis)
notes: Stapled peptide composition; also called Ac-PL3-Ala-Ala-B5-Asp-Asp-Ala-Ala-Phe-Val-S8-Phe-Trp-Gln-NH2
Consider B7, for which the half-inhibitory concentration (IC50) in assay [1] was 5000 nM.

B8: I-349 (peptide)
peptide: XAAXDDAAFVXFWQ
modifications: not fully specified; N-terminal Ac; PL3 at 1; B5 at 4; S8 at 11; C-terminal NH2; stapled PL3-B5 and B5-S8 (olefin metathesis)
notes: as for B7
In assay [1], B8 gave an IC50 of 5000 nM.

B9: I-336 (peptide)
peptide: Ac-[αAllylPro]DA[B5(4)]DDAAFV[S8][Phe(2-CONH2)][Bta]Q-NH2
modifications: staple 1-4, 4-11
notes: Stapled peptide composition; also called Ac-PL3-Asp-Ala-B5-Asp-Asp-Ala-Ala-Phe-Val-S8-2CBMF-BztA-Gln-NH2
B9: in assay [1], the IC50 was 153 nM.

B10: I-347 (peptide)
peptide: XDQXDDAAFVXFXQ
modifications: not fully specified; N-terminal Ac; PL3 at 1; B5 at 4; S8 at 11; BztA at 13; C-terminal NH2; stapled PL3-B5 and B5-S8 (olefin metathesis)
notes: Stapled peptide composition; also called Ac-PL3-Asp-Gln-B5-Asp-Asp-Ala-Ala-Phe-Val-S8-Phe-BztA-Gln-NH2
B10: in assay [1], the IC50 stood at 122 nM.

B11: I-341 (peptide)
peptide: Ac-[αAllylPro]DA[B5(9)]DDAAFV[S8]Y[Bta]Q-NH2
modifications: staple 1-4, 4-11
notes: Stapled peptide composition; also called Ac-PL3-Asp-Ala-B5-Asp-Asp-Ala-Ala-Phe-Val-S8-Tyr-BztA-Gln-NH2
Regarding B11, in assay [1], the IC50 came to 2000 nM.

B12: I-342 (peptide)
peptide: Ac-[αAllylPro]DA[B5(9)]DDAAFT[S8]F[Bta]Q-NH2
modifications: staple 1-4, 4-11
notes: Stapled peptide composition; also called Ac-PL3-Asp-Ala-B5-Asp-Asp-Ala-Ala-Phe-Thr-S8-Phe-BztA-Gln-NH2
B12 had a 50% inhibitory concentration (IC50) in assay [1] of 58.5 nM.

B13: I-346 (peptide)
peptide: XDQXDDAAFVXFXQ
modifications: not fully specified; N-terminal Ac; PL3 at 1; B5 at 4; S8 at 11; BztA at 13; C-terminal NH2; stapled PL3-B5 and B5-S8 (olefin metathesis)
notes: as for B10
With B13, the IC50 in assay [1] was 180 nM.

B14: I-345 (peptide)
peptide: Ac-[αAllylPro]D[S(OMe)][B5(9)]DDAAFV[S8]F[Bta]Q-NH2
modifications: staple 1-4, 4-11
notes: Stapled peptide composition; also called Ac-PL3-Asp-S(OMe)-B5-Asp-Asp-Ala-Ala-Phe-Val-S8-Phe-BztA-Gln-NH2
B14 registered an IC50 in assay [1] of 134 nM.

B15: I-351 (peptide)
peptide: XDAXADAAFVXFWQ
modifications: not fully specified; N-terminal Ac; PL3 at 1; B5 at 4; S8 at 11; C-terminal NH2; stapled PL3-B5 and B5-S8 (olefin metathesis)
notes: Stapled peptide composition; also called Ac-PL3-Asp-Ala-B5-Ala-Asp-Ala-Ala-Phe-Val-S8-Phe-Trp-Gln-NH2
Molecule B15 displayed an IC50 in assay [1] of 5000 nM.

B16: I-332 (peptide)
peptide: Ac-[αAllylPro]DA[B5(14)]DDAAHV[S8]FWQ-NH2
modifications: staple 1-4, 4-11; not fully specified (residue 9)
notes: as for B1
Molecule B16 displayed an IC50 in assay [1] of 5000 nM.

B17: I-564 (peptide)
peptide: Ac-[αAllylPro]DL[B5(5)]DDAAFN[S8]F[Bta]H-NH2
modifications: staple 1-4, 4-11
In assay [2], B17 came in with an EC50 of 36 nM.

B18: I-566 (peptide)
peptide: XDVXDDAAFNXFXQ
modifications: not fully specified; Ac-PL3-Asp-Val-B5-Asp-Asp-Ala-Ala-Phe-Asn-S8-Phe-BztA-Gln-NH2; N-terminal acetyl, C-terminal amide; non-natural: PL3(1), B5(4), S8(11), BztA(13); staples PL3(1)-B5(4) and B5(4)-S8(11)
In assay [2], B18 returned a half-maximal effective concentration (EC50) of 76 nM.
